Experimental data reported in patent JP2003513027A.
“And” between values parts separate entries of the source, which are not always exact repeats. Identical values can stand only once.

Legend:
[1] = biological target: Cu-OxLDL (copper-oxidised low density lipoprotein); experiment: cell-based or functional assay
[2] = biological target: MDA-LDL (malondialdehyde-modified low density lipoprotein); experiment: direct binding and competition assays with affinity-purified Fab
[3] = biological target: Cu-OxLDL (copper-oxidised low density lipoprotein); experiment: 125I-Cu-OxLDL binding to mouse peritoneal macrophages on ice, IK17 as competitor, % of control without competitor

IK17 human monoclonal IgG Fab
degradation of 125I-Cu-OxLDL by macrophages (TCA-soluble 125I in the medium), % inhibition [1]: 50% and 65% | Kd [2]: 37 nM | % inhibition of the binding of 125I-Cu-OxLDL to macrophages [3]: 70% and 85%
